Results as given in the supplement of paper PMC7125110.
± gives the standard error. For part of these data: Variants at the floor of the assay were thinned out.

B1: glmS ribozyme (parent)
chain: AUAAAAGCGCCAGAACUACAGAAAUGUAGUUGACGAGGAGGAGGUUUAUCGAAUUUUCGGCGGAUGCCUCCAAA

Experiments:
Details in all cases: with glucosamine-6-phosphate
glucosamine-6-phosphate [1] = variants of: B1; assay: kcat; higher = faster cleavage; RNA array
Summary of the method: (§1)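 Barcoded glmS ribozyme variants on sequenced MiSeq chips were transcribed in situ by E. coli RNA polymerase and tracked through a hybridised Cy3 probe at 37 °C. Glucosamine-6-phosphate (40 μM to 10 mM) in HEPES/KCl/Mg(OAc)2 buffer was flowed in, and tiles were imaged over ~14 h. Signals were normalised to baseline and to non-cleaving reference variants; per-tile medians were fit to one- or two-exponential decays to give kobs. kcat and KM came from weighted Michaelis–Menten fits across concentrations.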

glucosamine-6-phosphate [2] = variants of: B1; assay: KM; higher = weaker cofactor use; RNA array
Summary of the method: as §1

glucosamine-6-phosphate [3] = variants of: B1; assay: self-cleavage kobs at 40 uM GlcN6P; higher = faster cleavage; RNA array
Summary of the method: as §1

glucosamine-6-phosphate [4] = variants of: B1; assay: self-cleavage kobs at 160 uM GlcN6P; higher = faster cleavage; RNA array
Summary of the method: as §1

glucosamine-6-phosphate [5] = variants of: B1; assay: self-cleavage kobs at 640 uM GlcN6P; higher = faster cleavage; RNA array
Summary of the method: as §1

glucosamine-6-phosphate [6] = variants of: B1; assay: self-cleavage kobs at 2500 uM GlcN6P; higher = faster cleavage; RNA array
Summary of the method: as §1

glucosamine-6-phosphate [7] = variants of: B1; assay: self-cleavage kobs at 10000 uM GlcN6P; higher = faster cleavage; RNA array
Summary of the method: as §1

| Variant | kcat (glucosamine-6-phosphate [1]) | KM (glucosamine-6-phosphate [2]) | self-cleavage kobs at 40 uM GlcN6P (glucosamine-6-phosphate [3]) | self-cleavage kobs at 160 uM GlcN6P (glucosamine-6-phosphate [4]) | self-cleavage kobs at 640 uM GlcN6P (glucosamine-6-phosphate [5]) | self-cleavage kobs at 2500 uM GlcN6P (glucosamine-6-phosphate [6]) | self-cleavage kobs at 10000 uM GlcN6P (glucosamine-6-phosphate [7]) |
| --- | --- | --- | --- | --- | --- | --- | --- |
| U45A A53U | 0.054 ± 0.013 s⁻¹ | 1720 ± 500 µM | 0.00125 ± 0.00017 s⁻¹ | 0.00351 ± 0.0016 s⁻¹ | 0.0162 ± 0.0071 s⁻¹ | 0.0671 ± 0.03 s⁻¹ | 0.0432 ± 0.012 s⁻¹ |
| A42U G43U A52G | < 1e-05 s⁻¹ | – | – | – | – | < 1e-05 s⁻¹ | – |
| G41A G66A | 0.0028 ± 0.0014 s⁻¹ | – | 6.67e-05 ± 1.2e-05 s⁻¹ | 0.000116 ± 3.7e-05 s⁻¹ | 0.000562 ± 8.6e-05 s⁻¹ | 0.000832 ± 0.00018 s⁻¹ | 0.0028 ± 0.00037 s⁻¹ |
| G41A A48C | 1.6e-05 ± 1.9e-06 s⁻¹ | 2350 ± 1000 µM | < 1e-05 s⁻¹ | – | < 1e-05 s⁻¹ | – | – |
| A42G U54C | 0.0476 ± 0.013 s⁻¹ | 3020 ± 1100 µM | 0.000795 ± 0.00016 s⁻¹ | 0.00208 ± 0.001 s⁻¹ | 0.0066 ± 0.0019 s⁻¹ | – | 0.0394 ± 0.008 s⁻¹ |
| G41U U46G | 0.00077 ± 0.00021 s⁻¹ | 1560 ± 690 µM | – | 8.6e-05 ± 2.2e-05 s⁻¹ | 0.000197 ± 4.2e-05 s⁻¹ | 0.000433 ± 0.00011 s⁻¹ | 0.000804 ± 0.00021 s⁻¹ |
| A42G U57C | 0.000292 ± 1.6e-05 s⁻¹ | 2270 ± 300 µM | – | – | 6.98e-05 ± 2e-05 s⁻¹ | 0.000145 ± 2.7e-05 s⁻¹ | 0.000242 ± 3.4e-05 s⁻¹ |
| G41U A52U | 0.000103 ± 1e-05 s⁻¹ | 1340 ± 510 µM | – | – | – | 7.47e-05 ± 1.3e-05 s⁻¹ | 8.78e-05 ± 1.2e-05 s⁻¹ |
| G40C U56G | 0.00124 ± 0.00014 s⁻¹ | 1460 ± 280 µM | 3.52e-05 ± 6.5e-06 s⁻¹ | 0.000146 ± 2.1e-05 s⁻¹ | 0.000333 ± 3.5e-05 s⁻¹ | 0.000869 ± 0.00011 s⁻¹ | 0.00108 ± 9.7e-05 s⁻¹ |
| A42G G66U | 0.00257 ± 0.00027 s⁻¹ | 1900 ± 310 µM | 5.91e-05 ± 9e-06 s⁻¹ | 0.000171 ± 2.6e-05 s⁻¹ | 0.000688 ± 8.4e-05 s⁻¹ | 0.00166 ± 0.00027 s⁻¹ | 0.0021 ± 0.00021 s⁻¹ |
| G41C C58U | < 1e-05 s⁻¹ | – | < 1e-05 s⁻¹ | < 1e-05 s⁻¹ | – | – | < 1e-05 s⁻¹ |
| G44U U47G | 1.56e-05 ± 2.1e-07 s⁻¹ | 2560 ± 150 µM | – | – | – | – | – |
| G44U U47A | 0.00016 ± 1.2e-05 s⁻¹ | 1850 ± 460 µM | – | – | 4.97e-05 ± 2.4e-05 s⁻¹ | 9.01e-05 ± 1.7e-05 s⁻¹ | 0.000136 ± 1.6e-05 s⁻¹ |
| G44A U54G | 0.000522 ± 0.00012 s⁻¹ | – | – | – | 0.000231 ± 7.3e-05 s⁻¹ | 0.000634 ± 0.00013 s⁻¹ | 0.000438 ± 6.2e-05 s⁻¹ |
| A42G C58G | 0.000303 ± 2.3e-05 s⁻¹ | 6970 ± 950 µM | – | – | – | 7.8e-05 ± 1.5e-05 s⁻¹ | 0.00018 ± 2.6e-05 s⁻¹ |
| G40U U57C | 2.46e-05 ± 1.1e-05 s⁻¹ | – | < 1e-05 s⁻¹ | – | – | 3.3e-05 ± 1.4e-05 s⁻¹ | – |

| Variant | kcat (glucosamine-6-phosphate [1]) | KM (glucosamine-6-phosphate [2]) | self-cleavage kobs at 40 uM GlcN6P (glucosamine-6-phosphate [3]) | self-cleavage kobs at 160 uM GlcN6P (glucosamine-6-phosphate [4]) | self-cleavage kobs at 640 uM GlcN6P (glucosamine-6-phosphate [5]) | self-cleavage kobs at 2500 uM GlcN6P (glucosamine-6-phosphate [6]) | self-cleavage kobs at 10000 uM GlcN6P (glucosamine-6-phosphate [7]) |
| --- | --- | --- | --- | --- | --- | --- | --- |
| A42U C67G | 0.000997 ± 0.00019 s⁻¹ | 853 ± 310 µM | 6.76e-05 ± 8.5e-06 s⁻¹ | 0.000114 ± 2.5e-05 s⁻¹ | 0.000369 ± 4.9e-05 s⁻¹ | 0.00082 ± 0.00012 s⁻¹ | 0.000939 ± 8.5e-05 s⁻¹ |
| A42U U69C C71U | 0.00168 ± 0.0003 s⁻¹ | 700 ± 210 µM | 8.14e-05 ± 1.7e-05 s⁻¹ | – | 0.000956 ± 0.00016 s⁻¹ | 0.00156 ± 0.00038 s⁻¹ | 0.00136 ± 0.00028 s⁻¹ |
| G44U A52U | 1.54e-05 ± 1.1e-06 s⁻¹ | – | < 1e-05 s⁻¹ | – | < 1e-05 s⁻¹ | – | – |
| G41U U47C | 0.000156 ± 5.1e-05 s⁻¹ | – | – | – | 4.55e-05 ± 1.3e-05 s⁻¹ | 0.000205 ± 4.6e-05 s⁻¹ | 0.000128 ± 2.3e-05 s⁻¹ |
| G43A C68G | 0.000174 ± 1.4e-05 s⁻¹ | 993 ± 160 µM | – | – | 6.69e-05 ± 1.2e-05 s⁻¹ | 0.000126 ± 2e-05 s⁻¹ | – |
| G41C C70A | 0.000866 ± 0.00015 s⁻¹ | 762 ± 230 µM | 5.77e-05 ± 8.1e-06 s⁻¹ | 0.000116 ± 2.1e-05 s⁻¹ | 0.000392 ± 6.6e-05 s⁻¹ | 0.00078 ± 0.00012 s⁻¹ | 0.000775 ± 9.6e-05 s⁻¹ |
| G44U A53U | 0.000149 ± 2.2e-05 s⁻¹ | – | – | – | – | 0.00015 ± 6e-05 s⁻¹ | 0.000129 ± 1e-05 s⁻¹ |
| G44U A53C | 0.000114 ± 1.6e-05 s⁻¹ | 1360 ± 610 µM | – | – | – | 8.9e-05 ± 1.7e-05 s⁻¹ | 9.5e-05 ± 1.6e-05 s⁻¹ |
| G43C C67A | 0.000634 ± 8.3e-05 s⁻¹ | 1520 ± 410 µM | – | 4.22e-05 ± 1.1e-05 s⁻¹ | 0.000205 ± 2e-05 s⁻¹ | 0.000479 ± 5.7e-05 s⁻¹ | 0.00052 ± 4.3e-05 s⁻¹ |
| A42U G66U | 6.96e-05 ± 7.8e-06 s⁻¹ | 1930 ± 830 µM | < 1e-05 s⁻¹ | – | – | 4.29e-05 ± 9.1e-06 s⁻¹ | 5.76e-05 ± 6.8e-06 s⁻¹ |
| G41C U46C | 3.31e-05 ± 3.8e-06 s⁻¹ | 2440 ± 1200 µM | < 1e-05 s⁻¹ | < 1e-05 s⁻¹ | – | – | 2.65e-05 ± 9.7e-06 s⁻¹ |
| U45A A48G | 0.000299 ± 7.2e-05 s⁻¹ | – | – | – | 8.14e-05 ± 1.3e-05 s⁻¹ | 0.00033 ± 4.4e-05 s⁻¹ | 0.00024 ± 2.6e-05 s⁻¹ |
| G40U A48U | 7.9e-05 ± 9.5e-06 s⁻¹ | 3220 ± 1300 µM | < 1e-05 s⁻¹ | – | – | 3.77e-05 ± 1.6e-05 s⁻¹ | 5.95e-05 ± 8.8e-06 s⁻¹ |
| G40U A48C | 5.25e-05 ± 2.1e-05 s⁻¹ | – | – | < 1e-05 s⁻¹ | – | – | 3.45e-05 ± 9.8e-06 s⁻¹ |
| G44U U54G | 0.000306 ± 2.6e-05 s⁻¹ | 986 ± 200 µM | – | – | 0.000127 ± 2.2e-05 s⁻¹ | 0.000226 ± 4.8e-05 s⁻¹ | 0.00027 ± 5.1e-05 s⁻¹ |
